# T1: TNFR1 (Homo sapiens, UniProt P19438)
# T1 chain: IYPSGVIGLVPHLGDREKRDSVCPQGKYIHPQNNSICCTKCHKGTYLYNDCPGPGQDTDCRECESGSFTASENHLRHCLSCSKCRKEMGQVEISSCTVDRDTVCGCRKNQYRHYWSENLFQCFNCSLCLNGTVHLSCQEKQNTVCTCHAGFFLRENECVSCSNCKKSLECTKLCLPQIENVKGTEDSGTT
# B1: K23T (designed binder)
# chain: SMEEEVEKAAKEYEKKKKEAIETHLEKLKAKDKEAAERFLKELEEAAKEYAKDEAKTMSEEEAKRRAKKYKEKVLLSELSEEEQKEIKEAEEKLVRTILKYVEEAAK
# B2: K27P (designed binder)
# chain: SMEEEVEKAAKEYEKKKKEAIEKHLEPLKAKDKEAAERFLKELEEAAKEYAKDEAKTMSEEEAKRRAKKYKEKVLLSELSEEEQKEIKEAEEKLVRTILKYVEEAAK
# B3: S59I (designed binder)
# chain: SMEEEVEKAAKEYEKKKKEAIEKHLEKLKAKDKEAAERFLKELEEAAKEYAKDEAKTMIEEEAKRRAKKYKEKVLLSELSEEEQKEIKEAEEKLVRTILKYVEEAAK
# B4: L40N (designed binder)
# chain: SMEEEVEKAAKEYEKKKKEAIEKHLEKLKAKDKEAAERFNKELEEAAKEYAKDEAKTMSEEEAKRRAKKYKEKVLLSELSEEEQKEIKEAEEKLVRTILKYVEEAAK
# B5: E26L (designed binder)
# chain: SMEEEVEKAAKEYEKKKKEAIEKHLLKLKAKDKEAAERFLKELEEAAKEYAKDEAKTMSEEEAKRRAKKYKEKVLLSELSEEEQKEIKEAEEKLVRTILKYVEEAAK
# B6: A10I (designed binder)
# chain: SMEEEVEKAIKEYEKKKKEAIEKHLEKLKAKDKEAAERFLKELEEAAKEYAKDEAKTMSEEEAKRRAKKYKEKVLLSELSEEEQKEIKEAEEKLVRTILKYVEEAAK
# B7: E37S (designed binder)
# chain: SMEEEVEKAAKEYEKKKKEAIEKHLEKLKAKDKEAASRFLKELEEAAKEYAKDEAKTMSEEEAKRRAKKYKEKVLLSELSEEEQKEIKEAEEKLVRTILKYVEEAAK
# B8: E61T (designed binder)
# chain: SMEEEVEKAAKEYEKKKKEAIEKHLEKLKAKDKEAAERFLKELEEAAKEYAKDEAKTMSETEAKRRAKKYKEKVLLSELSEEEQKEIKEAEEKLVRTILKYVEEAAK
# B9: E92L (designed binder)
# chain: SMEEEVEKAAKEYEKKKKEAIEKHLEKLKAKDKEAAERFLKELEEAAKEYAKDEAKTMSEEEAKRRAKKYKEKVLLSELSEEEQKEIKEAELKLVRTILKYVEEAAK
# B10: A106I (designed binder)
# chain: SMEEEVEKAAKEYEKKKKEAIEKHLEKLKAKDKEAAERFLKELEEAAKEYAKDEAKTMSEEEAKRRAKKYKEKVLLSELSEEEQKEIKEAEEKLVRTILKYVEEAIK
# B11: K56A (designed binder)
# chain: SMEEEVEKAAKEYEKKKKEAIEKHLEKLKAKDKEAAERFLKELEEAAKEYAKDEAATMSEEEAKRRAKKYKEKVLLSELSEEEQKEIKEAEEKLVRTILKYVEEAAK
# B12: K48F (designed binder)
# chain: SMEEEVEKAAKEYEKKKKEAIEKHLEKLKAKDKEAAERFLKELEEAAFEYAKDEAKTMSEEEAKRRAKKYKEKVLLSELSEEEQKEIKEAEEKLVRTILKYVEEAAK
# B13: E83A (designed binder)
# chain: SMEEEVEKAAKEYEKKKKEAIEKHLEKLKAKDKEAAERFLKELEEAAKEYAKDEAKTMSEEEAKRRAKKYKEKVLLSELSEEAQKEIKEAEEKLVRTILKYVEEAAK
# B14: F39C (designed binder)
# chain: SMEEEVEKAAKEYEKKKKEAIEKHLEKLKAKDKEAAERCLKELEEAAKEYAKDEAKTMSEEEAKRRAKKYKEKVLLSELSEEEQKEIKEAEEKLVRTILKYVEEAAK
# B15: K16E (designed binder)
# chain: SMEEEVEKAAKEYEKEKKEAIEKHLEKLKAKDKEAAERFLKELEEAAKEYAKDEAKTMSEEEAKRRAKKYKEKVLLSELSEEEQKEIKEAEEKLVRTILKYVEEAAK
# B16: L25H (designed binder)
# chain: SMEEEVEKAAKEYEKKKKEAIEKHHEKLKAKDKEAAERFLKELEEAAKEYAKDEAKTMSEEEAKRRAKKYKEKVLLSELSEEEQKEIKEAEEKLVRTILKYVEEAAK
# B17: K85F (designed binder)
# chain: SMEEEVEKAAKEYEKKKKEAIEKHLEKLKAKDKEAAERFLKELEEAAKEYAKDEAKTMSEEEAKRRAKKYKEKVLLSELSEEEQFEIKEAEEKLVRTILKYVEEAAK
# B18: Y13C (designed binder)
# chain: SMEEEVEKAAKECEKKKKEAIEKHLEKLKAKDKEAAERFLKELEEAAKEYAKDEAKTMSEEEAKRRAKKYKEKVLLSELSEEEQKEIKEAEEKLVRTILKYVEEAAK
# B19: K52V (designed binder)
# chain: SMEEEVEKAAKEYEKKKKEAIEKHLEKLKAKDKEAAERFLKELEEAAKEYAVDEAKTMSEEEAKRRAKKYKEKVLLSELSEEEQKEIKEAEEKLVRTILKYVEEAAK
# B20: E7A (designed binder)
# chain: SMEEEVAKAAKEYEKKKKEAIEKHLEKLKAKDKEAAERFLKELEEAAKEYAKDEAKTMSEEEAKRRAKKYKEKVLLSELSEEEQKEIKEAEEKLVRTILKYVEEAAK
# B21: E103I (designed binder)
# chain: SMEEEVEKAAKEYEKKKKEAIEKHLEKLKAKDKEAAERFLKELEEAAKEYAKDEAKTMSEEEAKRRAKKYKEKVLLSELSEEEQKEIKEAEEKLVRTILKYVIEAAK
# B22: K64L (designed binder)
# chain: SMEEEVEKAAKEYEKKKKEAIEKHLEKLKAKDKEAAERFLKELEEAAKEYAKDEAKTMSEEEALRRAKKYKEKVLLSELSEEEQKEIKEAEEKLVRTILKYVEEAAK
# B23: L25W (designed binder)
# chain: SMEEEVEKAAKEYEKKKKEAIEKHWEKLKAKDKEAAERFLKELEEAAKEYAKDEAKTMSEEEAKRRAKKYKEKVLLSELSEEEQKEIKEAEEKLVRTILKYVEEAAK
# B24: S77E (designed binder)
# chain: SMEEEVEKAAKEYEKKKKEAIEKHLEKLKAKDKEAAERFLKELEEAAKEYAKDEAKTMSEEEAKRRAKKYKEKVLLEELSEEEQKEIKEAEEKLVRTILKYVEEAAK
# B25: V95W (designed binder)
# chain: SMEEEVEKAAKEYEKKKKEAIEKHLEKLKAKDKEAAERFLKELEEAAKEYAKDEAKTMSEEEAKRRAKKYKEKVLLSELSEEEQKEIKEAEEKLWRTILKYVEEAAK
# B26: A20P (designed binder)
# chain: SMEEEVEKAAKEYEKKKKEPIEKHLEKLKAKDKEAAERFLKELEEAAKEYAKDEAKTMSEEEAKRRAKKYKEKVLLSELSEEEQKEIKEAEEKLVRTILKYVEEAAK
# B27: V74H (designed binder)
# chain: SMEEEVEKAAKEYEKKKKEAIEKHLEKLKAKDKEAAERFLKELEEAAKEYAKDEAKTMSEEEAKRRAKKYKEKHLLSELSEEEQKEIKEAEEKLVRTILKYVEEAAK
# B28: K16G (designed binder)
# chain: SMEEEVEKAAKEYEKGKKEAIEKHLEKLKAKDKEAAERFLKELEEAAKEYAKDEAKTMSEEEAKRRAKKYKEKVLLSELSEEEQKEIKEAEEKLVRTILKYVEEAAK
# B29: A30Y (designed binder)
# chain: SMEEEVEKAAKEYEKKKKEAIEKHLEKLKYKDKEAAERFLKELEEAAKEYAKDEAKTMSEEEAKRRAKKYKEKVLLSELSEEEQKEIKEAEEKLVRTILKYVEEAAK
# B30: K33L (designed binder)
# chain: SMEEEVEKAAKEYEKKKKEAIEKHLEKLKAKDLEAAERFLKELEEAAKEYAKDEAKTMSEEEAKRRAKKYKEKVLLSELSEEEQKEIKEAEEKLVRTILKYVEEAAK
# B31: A36K (designed binder)
# chain: SMEEEVEKAAKEYEKKKKEAIEKHLEKLKAKDKEAKERFLKELEEAAKEYAKDEAKTMSEEEAKRRAKKYKEKVLLSELSEEEQKEIKEAEEKLVRTILKYVEEAAK
# B32: K16C (designed binder)
# chain: SMEEEVEKAAKEYEKCKKEAIEKHLEKLKAKDKEAAERFLKELEEAAKEYAKDEAKTMSEEEAKRRAKKYKEKVLLSELSEEEQKEIKEAEEKLVRTILKYVEEAAK
# B33: S1W (designed binder)
# chain: WMEEEVEKAAKEYEKKKKEAIEKHLEKLKAKDKEAAERFLKELEEAAKEYAKDEAKTMSEEEAKRRAKKYKEKVLLSELSEEEQKEIKEAEEKLVRTILKYVEEAAK
# B34: K29F (designed binder)
# chain: SMEEEVEKAAKEYEKKKKEAIEKHLEKLFAKDKEAAERFLKELEEAAKEYAKDEAKTMSEEEAKRRAKKYKEKVLLSELSEEEQKEIKEAEEKLVRTILKYVEEAAK
# B35: E104R (designed binder)
# chain: SMEEEVEKAAKEYEKKKKEAIEKHLEKLKAKDKEAAERFLKELEEAAKEYAKDEAKTMSEEEAKRRAKKYKEKVLLSELSEEEQKEIKEAEEKLVRTILKYVERAAK
# Target: T1, TNFR1
# Test: yeast display SC50
row,Binder,apparent Kd (screen) [nM]
1,B1,0.446
2,B2,2.73
3,B3,2.73
4,B4,0.539
5,B5,0.869
6,B6,0.446
7,B7,0.49
8,B8,0.956
9,B9,10.4
10,B10,5.84
11,B11,3
12,B12,0.593
13,B13,0.405
14,B14,5.31
15,B15,1.54
16,B16,0.49
17,B17,0.539
18,B18,1.27

row,Binder,apparent Kd (screen) [nM]
1,B19,0.956
2,B20,3.63
3,B21,0.539
4,B22,0.446
5,B23,0.446
6,B24,0.869
7,B25,13.8
8,B26,3.63
9,B27,6.43
10,B28,0.49
11,B29,0.446
12,B30,0.653
13,B31,0.49
14,B32,1.05
15,B33,3.63
16,B34,1.05
17,B35,0.446

# Source: paper PMC12416549 (2024)
